According to the supplement of paper PMC11865577:

Tests used:
Assay in all cases: pull-down binding Z-score (relative to library population); higher = stronger binding
[1] = test system: TO-3-N3-2 (biotin conjugate); details: RNA library: Library-2
How it was run: (§1)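 A heat-folded, dye-end-labelled (Cy5 or Cy3) RNA library (1 μg, phosphate/NaCl/KCl buffer) was exposed for 60 min at 25 °C to streptavidin beads holding 100 pmol of biotin-conjugated small molecule. RNA retained on the beads was eluted in hot SDS and hybridised to a DNA barcode microarray for 20 h at 55.5 °C. Binding scores were Z-scores against the library mean and standard deviation, calculated after subtracting beads alone and taking trimmed means of replicate probes.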

[2] = test system: G-clamp-N3 (biotin conjugate); details: RNA library: Library-1 (pre-miRNA loops + repeats)
How it was run: as §1

[3] = test system: TO-3-N3 (biotin conjugate); details: RNA library: Library-2
How it was run: as §1

[4] = test system: TO-N3-2 (biotin conjugate); details: RNA library: Library-2
How it was run: as §1

TO-N3 (biotin conjugate) = details: RNA library: Library-2
How it was run: as §1

| Sequence | pull-down binding Z-score [1] | pull-down binding Z-score [2] | pull-down binding Z-score [3] | pull-down binding Z-score [4] | pull-down binding Z-score (TO-N3 (biotin conjugate)) |
| --- | --- | --- | --- | --- | --- |
| GUUCGGGGGUUCCGACGGCGAC [hsa-mir-6790] | 0.957 | 3.09 | 2.61 | 1.76 | 2.67 |
| GUUGAAAAAUAUCUAUGUAUUAGUAAAC [hsa-mir-649] | -0.281 | -0.475 | -0.0443 | -0.74 | -0.151 |
| GUUGACUGUUGAAUCUCAUGGCAAC [hsa-mir-21] | -0.186 | -0.474 | -0.114 | 0.204 | 0.0029 |
| GUUGCAUGUUGUCACGGCCUCAAUGCAAU [hsa-mir-32] | -0.202 | -1.33 | -0.164 | 0.552 | 0.0815 |
| GUUGCUUAGAUUACAUGUAAC [hsa-mir-890] | -0.214 | -0.226 | -0.632 | 0.419 | -0.579 |
| GUUGGAUGGUCUAAUUGUGAAGCUCCUAAC [hsa-mir-141] | -0.259 | -0.549 | -0.103 | -0.0552 | -0.138 |
| GUUGGCUCAAGAAAGGGAGAUAGAUGGUAGCCC [hsa-mir-6884] | 1.51 | 0.473 | 1.71 | 3.94 | 1.94 |
| GUUGGGAUUGAGUUUUGAACUCGGC [hsa-mir-196a-2] | -0.0929 | 0.29 | 0.00707 | -0.0161 | -0.0442 |
| GUUGGGCAUCCACAGUCUCCCACC [hsa-mir-1911] | -0.322 | -1.43 | -0.0617 | 0.612 | 0.206 |
| GUUGGGGAACAGGUGGUUAGCACUUCAU [hsa-mir-5196] | 0.521 | 0.351 | 1.07 | 0.81 | 1.35 |
| GUUGUUGUCUUACUGCGCUCAACAAC [hsa-mir-7-2] | -0.285 | 0.767 | 0.0252 | -0.241 | -0.0893 |
| GUUGUUGUGAGCAAUAGUAAGGAAGCAAU [hsa-mir-34a] | 0.501 | 0.984 | 0.276 | 0.486 | 0.423 |
| GUUGUUUUUAGAUAACUAAAUCGACAAC [hsa-mir-7-1] | 0.0396 | 0.109 | 0.721 | 0.0256 | 0.59 |
| GUUUACGUGAUUCCUGGUUAAUC [hsa-mir-376b] | -0.0636 | 0.375 | -0.121 | -0.0759 | -0.0962 |
| GUUUAUUUUGUAGC [hsa-mir-4317] | -0.0511 | -1.09 | 0.299 | -0.593 | 0.221 |
| GUUUCUAAAAAAAUAAAAAGUUAAAAAAAUUUAUGUUAACGUGUAAUGUGUUUACUAAUUUUUUUUUUUUUUUUUGGAGAC [hsa-mir-3908] | 0.349 | -1.28 | -0.27 | -0.771 | -0.136 |
| GUUUCUGUUGUCUGAAAGGAAAGAAAG [hsa-mir-520e] | -0.346 | -1.01 | -0.489 | 0.25 | -0.486 |
| GUUUGAUAGUUUAGACACAAAC [hsa-mir-3591] | 0.11 | 0.0903 | 0.44 | -0.389 | 0.263 |
| GUUUGCAAGGGGUGUUUCUGUCCAUGGUCAGGC [hsa-mir-4283-1_4283-2] | 0.154 | 1.19 | 0.578 | 0.725 | 0.778 |

| Sequence | pull-down binding Z-score [1] | pull-down binding Z-score [2] | pull-down binding Z-score [3] | pull-down binding Z-score [4] | pull-down binding Z-score (TO-N3 (biotin conjugate)) |
| --- | --- | --- | --- | --- | --- |
| GUUUGCCUGUUAAUGAAUUCAAAC [hsa-mir-3129] | 0.248 | -0.522 | 0.445 | 0.0357 | 0.513 |
| GUUUGGCAGGACAGUUUCCAAGC [hsa-mir-6779] | -0.323 | -0.893 | -0.587 | 0.15 | -0.451 |
| GUUUGGGUGCGGUUGGGAGUCUCUAAU [hsa-mir-200c] | 1.39 | 0.194 | 1.66 | 1.41 | 1.67 |
| GUUUUACUAUGAUGAGGUGUGCCAUCCACCCCAUCAUAGUAAAC [hsa-mir-606] | -0.139 | -0.172 | -0.262 | -0.698 | -0.422 |
| GUUUUUUAAGAGGAAGGGAGACCUAAGCUAGCA [hsa-mir-4481] | 0.475 | 0.269 | 0.205 | 0.747 | 0.507 |
| UAAAGAGUAUUCAACAUC [hsa-mir-1245b] | 0.0553 | -0.935 | -0.609 | -0.373 | -0.49 |
| UAAGAGUAAUAGCUCUCUAGGUUAUUAUGAAUA [hsa-mir-5692c-1] | 0.109 | -0.762 | -0.283 | -0.712 | -0.449 |
| UAAGUGUCCUAGCACUUA [hsa-mir-374b] | -0.524 | 0.214 | 0.251 | -0.647 | -0.0395 |
| UAAGUGUUAUAGCACUUA [hsa-mir-374a] | -0.541 | -0.753 | -0.901 | -1.79 | -1.38 |
| UAAGUUGUGAUCAUACCA [hsa-mir-1273g] | -0.0944 | -1.51 | -0.424 | 0.165 | -0.24 |
| UAAUAACUGACAAACAGACAAUUG [hsa-mir-4774] | -0.145 | -0.873 | -0.343 | -0.303 | -0.376 |
| UAAUAGCAAUCCUUAAAUGCCAUUA [hsa-mir-4477b] | -0.0844 | -0.537 | -0.947 | -1.16 | -1.24 |
| UAAUAUGCACUAUAAAUAUAUUG [hsa-mir-450a-1] | -0.431 | -0.725 | -0.774 | -1.33 | -1.16 |
| UAAUAUGUAAUAUAAAUGUAUUG [hsa-mir-450a-2] | -0.134 | -0.938 | 0.202 | -0.926 | -0.167 |
| UAAUCACAGGCCACAUUUCUGAAUA [hsa-mir-1295b] | -0.391 | -1.08 | -0.745 | -0.437 | -0.716 |
| UAAUGAUUGGAGUCAUUUUCAGAGCAUUA [hsa-mir-3202-1] | -0.262 | 1.44 | -0.304 | -0.537 | -0.407 |
| UAAUGCUCUGAAAAUGACUCCAAUCAUUA [hsa-mir-3202-2] | -0.069 | -1.64 | -0.685 | -0.457 | -0.741 |
| UACAAUUUUUUUUUUUUUAAAUUUUA [hsa-mir-1303] | 0.111 | 0.8 | -0.51 | -1.17 | -0.893 |
